Molecular target: vimentin (Rat2) (UniProt P31000)
Test: co-immunoprecipitation with Flag-Beclin 1
Conditions: reference: wild-type Flag-Beclin 1; sites S234,S295

- binding against the reference: weaker
Substance: Beclin 1 (from UniProt Q14457) S234A/S295A (AA)

— article PMC3507442
